Assay results: patent US20060253917A1 (published 2006)
Ends that are not written are not given here.

T1: OsCAA90866 aa 100-250 (Oryza sativa)
T1 construct: bait, Gal4 DBD fusion; also called PN20311; O. sativa Chilling-Inducible Protein CAA90866
T1 chain: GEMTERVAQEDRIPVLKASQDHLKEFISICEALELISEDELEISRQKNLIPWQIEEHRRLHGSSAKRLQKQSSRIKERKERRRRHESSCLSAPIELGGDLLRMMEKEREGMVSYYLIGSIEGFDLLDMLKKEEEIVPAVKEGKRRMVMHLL

T2: OsCYCOS2 aa 50-233 (Oryza sativa, UniProt A2YH60 50-233)
T2 construct: bait, Gal4 DBD fusion; also called PN20257; O. sativa Cyclin OsCYCOS2
T2 chain: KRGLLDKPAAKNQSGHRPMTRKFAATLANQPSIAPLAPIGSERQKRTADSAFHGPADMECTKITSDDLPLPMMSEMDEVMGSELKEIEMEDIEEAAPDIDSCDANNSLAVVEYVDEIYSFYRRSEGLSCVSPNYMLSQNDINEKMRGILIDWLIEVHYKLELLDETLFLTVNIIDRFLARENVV

T3: OsS49462 aa 1-100 (Oryza sativa, UniProt Q01J96 179-278)
T3 construct: bait, Gal4 DBD fusion; also called PN20325; O. sativa Cyclin OsS49462, Fragment
T3 sequence: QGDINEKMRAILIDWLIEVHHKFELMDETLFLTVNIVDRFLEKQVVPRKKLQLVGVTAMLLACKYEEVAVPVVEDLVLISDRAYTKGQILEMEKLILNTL

T4: OsCHIB1 aa 10-200 (Oryza sativa)
T4 construct: bait, Gal4 DBD fusion; also called PN19651; O. sativa Chitinase, Class III
T4 chain: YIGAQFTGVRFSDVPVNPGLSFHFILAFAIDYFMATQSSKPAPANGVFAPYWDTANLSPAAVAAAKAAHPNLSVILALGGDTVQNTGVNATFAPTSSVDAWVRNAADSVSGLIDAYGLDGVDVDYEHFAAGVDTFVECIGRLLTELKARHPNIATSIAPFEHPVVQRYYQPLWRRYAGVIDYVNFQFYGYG

B1: OsCAA90866 aa 1-126 (other)
chain: MVEVEEVSNKMQVQMRLHPAAAAEEEDADLPLPALFDKASHLHSLASSSSLDQEGIRKGVDLLRRCDEMVSKVGLFSSNETKDDISTANLKYLLVPYYLGEMTERVAQEDRIPVLKASQDHLKEFI
notes: prey, AD fusion; also called PN20311
B2: OsPN29967 aa 16-174 (other)
chain: PPTRRALTLTLTLTLLLSLAMSEPASPPPAMPEDAAPPQPQPEPAVPAGEEAAPSLERKEELLPVEEKISELDESQSQLMGRLRGLKEDLLNWRSSLDTQVTKYKSELSDIKTALNSEIEQLRSDFQELRTTLKKQQEDVSNSLKNLGLQDATDNDGNK
notes: prey, AD fusion; also called Novel Protein PN29967, Fragment, unknown
B3: OsPN29968 aa 12-113 (other)
chain: LVNNEDVVAIKQMQHLILGRLQDSNAVLTHFNEYSEQCFAEVSNDFAGKTRLLKSMKADLDHIFLKLRGMKSRLAATYPDAFPTGAMAETMDQRPDLESPLD
notes: prey, AD fusion; also called Novel Protein PN29968, Similar to A. thaliana Unknown Protein BAB01990
B4: OsPN23484 aa 111-194 (other)
chain: GREDREREVQEELASLSDLAASYHSRLQSHGIDPDSFSDDGEEEQHDEEDGEEVEQIDTAALQTDGSSGGDSIGGMQVKAMVDD
notes: prey, AD fusion; also called Novel Protein PN23484, heavy meromyosin
B5: OsPN29957 aa 51-288 (other)
chain: PRVLALTVKQSTKGEAAKAFLRVLKYSSGAVLEPAKLYKLKHLTKVEVISNDPSGCTFVLGFDNLRSQSVAPPQWTMRNIDDRNRLLFSILTMCKEILSYLPKVVGIDFVELALWAKENTVTLDNQSSTQDGQEKSVTTQTERKVTVTVENDLGSQAKDEEEDMEALLDTYVMGIGEADAFSERLKQELVALEAANVYQLLQSEPLIDEVLQGLDAASATVDDMDEWLRIFNMKLRHM
notes: prey, AD fusion; also called Novel Protein PN29957, Fragment, unknown
B6: OsPN29942 aa 11-182 (other)
chain: VDTSNEIKEIVIDDMEPKVFQAGFLFMYRDNLVGDDELSASSSDCSIFDTLAGKLLAAADRYELPRLRLLCESYLCKHISVNSVATTLALADRHHAMELKSVCLKFAAENLSAVIRTDGFDYLKDNCPALQSEILRTVAGCEEECSSGGKSQSVWGQLSDGGDTSGRRVRPR
notes: prey, AD fusion; also called Novel Protein PN29942, Fragment, zinc finger protein
B7: PN25358 aa 303-472 (other)
chain: VSASEFYSQSAIYVAAAHALKPNYSVYRSALRLVRSMLPLPYLKVGYLIAPPENSAIAPHKEWERSQFVLNHEELQQVNASDQPPSQSPGHVDSGRKLFRIVVADIVSVSACADLTLPPGAGLRIDTIHGPRFLVADNWETIDSWLDAIRLVYTIFARGRSDVLAGIITG
notes: prey, AD fusion; also called Hypothetical Protein AAK39589
B8: OsPN29957 aa 28-214 (other)
chain: EVSFSIRVAKGRGIFEKLGRLAKPRVLALTVKQSTKGEAAKAFLRVLKYSSGAVLEPAKLYKLKHLTKVEVISNDPSGCTFVLGFDNLRSQSVAPPQWTMRNIDDRNRLLFSILTMCKEILSYLPKVVGIDFVELALWAKENTVTLDNQSSTQDGQEKSVTTQTERKVTVTVENDLGSQAKDEEEDM
notes: prey, AD fusion
B9: Os018989-4003 aa 177-294 (other)
chain: NYRYEKIQKLEEVHKELITRIKNKKKLLQEIEKQFDDLQNITLRNQASQRPAESVNGILLPFLLIKTSRKARVEIEISEDSKFARFDFNGAPFTMHDDVSILEAIRRNKGRAGLSIHP
notes: prey, AD fusion; also called PN21044
B10: OsPN26539 aa 194-346 (other)
chain: TEIIGLKGRIDKKNAYLQELEDQFVGLQNLAQRNEQLYGSGNAPSGGVALPFILVQTRPHATVEVEISEDMQLVHFDFNSTPFELHDDSFVLKALGFSGKEPDDTQAWVGNGGECSTTPIYHQSPQVARPNGVRLPTSPPIPGILKGRVKHEH
notes: prey, AD fusion
B11: OsPN26539 aa 66-346 (other)
chain: DDAPSSQPATSKKKKRGPGTRATGPDKGGRGLRQFSMKVCEKVESKGRTTYNEVADELVAEFADPNNNFASPDPDNPNTPQFDEKNIRRRVYDALNVLMAMDIISKDKKEIQWKGLPRTSMSDVEELKTEIIGLKGRIDKKNAYLQELEDQFVGLQNLAQRNEQLYGSGNAPSGGVALPFILVQTRPHATVEVEISEDMQLVHFDFNSTPFELHDDSFVLKALGFSGKEPDDTQAWVGNGGECSTTPIYHQSPQVARPNGVRLPTSPPIPGILKGRVKHEH
notes: prey, AD fusion; also called Novel Protein PN26539, Probable DP
B12: OsPN30852 aa 45-86 (other)
chain: RFEATTKSKLASLNEKLDILERKLEVLEVQVSSATTNPSVFN
modifications: not fully specified
notes: prey, AD fusion; also called Novel Protein PN30852
B13: OsPN26539 aa 82-253 (other)
chain: GPGTRATGPDKGGRGLRQFSMKVCEKVESKGRTTYNEVADELVAEFADPNNNFASPDPDNPNTPQFDEKNIRRRVYDALNVLMAMDIISKDKKEIQWKGLPRTSMSDVEELKTEIIGLKGRIDKKNAYLQELEDQFVGLQNLAQRNEQLYGSGNAPSGGVALPFILVQTRPH
notes: prey, AD fusion
B14: Os018989-4003 aa 9-179 (other)
chain: AAAASAAPGLANLLIREGAGLPSRPERYPPFRPCTSDSFAPISREGDDIPPQKKSVSLRSGGGGNAAEREEGGANRNGKKEKTGAQRITGWGLREFSKIVSKKVEAKGRTTYNEVADEIFAELKSITQNGLEFDEKNIRRRVYDAFNVLIAIRVIAKDKKEIKWMGLTNYR
notes: prey, AD fusion; also called PN21044; Hypothetical Protein 018989-4003, Similar to Triticum sp; DP Protein
B15: OsPN22020 aa 76-170 (other)
chain: ANATDGVKPLVGSARLPLRDVLADTGIGARASRSLRLKRPSGRPHGRLEVRVAVREPKRYYDPSPAYPAPYHQQTNRDPYAYGNTTTGGYGYAYG
notes: prey, AD fusion; also called Novel Protein PN22020, Fragment, Similar to A. thaliana Putative Protein
B16: OsPN22823 aa 25-106 (other)
chain: SSSGKKVPLFSLFRYADRLDVLLMVVGTVGALGNGISQPLMTVLFGNVINSFGANTSGSVLRSVTKVKVSCWTMAGERQSAR
notes: prey, AD fusion; also called Novel Protein PN22823, Similar to ABC Transporter Proteins
B17: OsPN29041 aa 5-108 (other)
chain: VQIRRALRALVDDHTDGLMDFEDTEVRSSEETDALEEARLAIEQVVIPKGESVQLLPRPPSIIASQVDLVESFKLKWESIGQEPNACLRILPQFVGVEEGGKSV
notes: prey, AD fusion; also called Novel Protein PN29041, Fragment, Similar to A. thaliana Putative ATPase
B18: OsAAK63900 aa 122-224 (other)
chain: AAVAGKTHYRSALCASVTICGPIKKKIIDHFHKKPVPPKPEPKPEPPKPKPEPEHPFLDHIHKKEKHFFDHFHKKPVPPKPEPKPEPKPQPAPEYHNPSPPAN
notes: prey, AD fusion; also called PN23266; O. sativa Putative Proline-Rich Protein AAK63900
B19: OsPN23268 aa 12-200 (other)
chain: SEEEAEATLRLLLEEENEARIAAFLVLLRAKGETYEEIVGLAKAMIGCCVRVDGLDDAVDIVGTGGDGADTVNISTGSTILAAAAGAKVAKQGSRASSSACGSADGIKRCVNEVGVGFMMSANYHPAMKIVKPVRKKLKIKTVFNILGPLLNPARVPYAVIGVYHENIVTKMAKAAQKFGMKRALVVHS
notes: prey, AD fusion; also called Novel Protein 23268, Similar to Phosphoribosylanthranilate Transferase, Chloroplast Precursor, Fragment
B20: OsORF020300-2233.2 aa 118-388 (other)
chain: SQDHLKEFISICEALELISEDELELSRQKQPDTMANRRAQKAARFKRQKAAETKLLEIKERKERRRRSLRAAALSAPIEAGEEDAFEDDGEEEREAWLATISLALCKAFDLLDMLKKEEEMLLAVKERQAKDGNAFAREMLDERTKKAEAWHHNAANRAPYSKPADPITCATFAQDVIEGRASVSQAHEHKHQPLIFGPASLVGGGLTSERERMAAQVFQPSYRLPTMSIEEAGLREMKMMEKWQERTAKMIQESNSAWHKDGSRSAQEDE
notes: prey, AD fusion; also called PN21639
B21: OsORF020300-2233.2 aa 93-387 (other)
chain: LLVPYYLGEMTERVAQEDRIPVLKASQDHLKEFISICEALELISEDELELSRQKQPDTMANRRAQKAARFKRQKAAETKLLEIKERKERRRRSLRAAALSAPIEAGEEDAFEDDGEEEREAWLATISLALCKAFDLLDMLKKEEEMLLAVKERQAKDGNAFAREMLDERTKKAEAWHHNAANRAPYSKPADPITCATFAQDVIEGRASVSQAHEHKHQPLIFGPASLVGGGLTSERERMAAQVFQPSYRLPTMSIEEAGLREMKMMEKWQERTAKMIQESNSAWHKDGSRSAQED
notes: prey, AD fusion; also called PN21639; Hypothetical Protein ORF020300-2233.2, Putative PP2A Regulatory Subunit, Similar to OsCAA90866
B22: OsPN26645 aa 24-164 (other)
chain: PLPEACPVPTAAEEILGPGGTCTTLDRRGDPVGVIEGDEVTLAKAITLLHMNKDDYIAVLFYASWCPFSQECKPNFEILASLFPSIRHFAFEESSIRPSIISRYGIHGFPTLFLLNSTMRVRYHGPRTVKSLAAFYRDVSG
notes: prey, AD fusion; also called Novel Protein PN26645, Putative Protein Disulfide Isomerase-Related Protein Precursor

Molecular target: T1, OsCAA90866 aa 100-250
Assay: Y2H; output trait library

Row | Binder | binding result
1 | B1 | binds

Molecular target: T2, OsCYCOS2 aa 50-233
Assay: Y2H; output trait library
Method in brief: (§1)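 Using an automated, high-throughput yeast two-hybrid assay provided by Myriad Genetics Inc. (Salt Lake City, Utah), protein-protein interactions were detected. Against either the input trait or the output trait rice prey library, a bait clone encoding a defined amino-acid fragment of a rice protein was screened. The encoding sequences of the prey clones that were retrieved were then compared against databases by BLAST to identify the interacting proteins.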

Row | Binder | binding result
2 | B2 | binds
3 | B3 | binds

Molecular target: T3, OsS49462 aa 1-100
Assay: Y2H; output trait library
Method in brief: as §1

Row | Binder | binding result
4 | B4 | binds
5 | B5 | binds
6 | B6 | binds
7 | B7 | binds
8 | B8 | binds

Molecular target: T5, OsE2F1 aa 100-250 (Oryza sativa)
T5 construct: bait, Gal4 DBD fusion; also called PN19758; O. sativa E2F Homolog
Assay: Y2H; output trait library
Method in brief: as §1

T5 sequence (chain, as listed by the source): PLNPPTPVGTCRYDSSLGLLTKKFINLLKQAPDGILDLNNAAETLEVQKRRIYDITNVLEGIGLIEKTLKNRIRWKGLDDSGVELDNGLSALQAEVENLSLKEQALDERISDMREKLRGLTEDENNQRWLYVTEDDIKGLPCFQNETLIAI

Row | Binder | binding result
9 | B9 | binds
10 | B10 | binds
11 | B11 | binds
12 | B12 | binds
13 | B13 | binds
14 | B14 | binds

Molecular target: T4, OsCHIB1 aa 10-200
Assay: Y2H; input trait library
Method in brief: as §1

Row | Binder | binding result
15 | B15 | binds
16 | B16 | binds
17 | B17 | binds
18 | AVREPKRYYDPSPAYPAPYHQQTNRDPYAYGNTTTGGYGYAYG (other, not fully specified, prey, AD fusion) [OsPN22020 aa 128-170] | binds

Molecular target: T6, OsPP2A-2 aa 1-308 (Oryza sativa, UniProt A2XN40 1-307)
T6 construct: bait, Gal4 DBD fusion; also called PN20254; O. sativa Serine/Threonine Protein Phosphatase PP2A-2, Catalytic Subunit
Assay: Y2H; input trait library
Method in brief: as §1

T6 sequence (A2XN40 whole entry, the tested form may be a part): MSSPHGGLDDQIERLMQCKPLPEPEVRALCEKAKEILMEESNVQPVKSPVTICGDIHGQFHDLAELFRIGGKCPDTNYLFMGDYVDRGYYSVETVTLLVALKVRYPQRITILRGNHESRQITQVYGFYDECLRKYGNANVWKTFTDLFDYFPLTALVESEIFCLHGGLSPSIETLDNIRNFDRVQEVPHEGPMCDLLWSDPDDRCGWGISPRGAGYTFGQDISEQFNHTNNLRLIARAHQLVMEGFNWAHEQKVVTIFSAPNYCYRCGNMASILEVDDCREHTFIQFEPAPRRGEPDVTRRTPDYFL

Row | Binder | binding result
19 | B18 | binds
20 | B19 | binds
21 | B20 | binds
22 | B21 | binds
23 | B22 | binds
